Reference: publication PMC3967975 (Molecular Biology of the Cell, 2014)
Read-outs that look alike come from different tables or passages of the source.

B1: His::lamin R55H (full-length Ce-lamin bearing the R55H mutation) (natural protein, C. elegans, UniProt Q21443 1-566, looked up)
chain: MSSRKGTRSSRIVTLERSANSSLSNNGGGDDSFGSTLLETSRLQEKDHLTSLNSHLATYIDKVRQLEQENNRLQVQIRDIEVVEKKEKSNLADRFEAEKARLRRALDSAQDELAKYRIEYDAAKVEVKKLKPQVEKLERELAGAEEQALHAQSIADQSQAKQKTLQARNDKLVVENDDLKKQNITLRDTVEGLKKAVEDETLLRTAANNKIKALEEDLAFALQQHKGELEEVRHKRQVDMTTYAKQINDEYQSKLQDQIEEMRAQFKNNLHQNKTAFEDAYKNKLNAARERQEEAVSEAIHLRARVRDLETSSSGNASLIERLRSELDTLKRSFQEKLDDKDARIAELNQEIERMMSEFHDLLDVKIQLDAELKTYQALLEGEEERLNLTQEAPQNTSVHHVSFSSGGASAQRGVKRRRVVDVNGEDQDIDYLNRRSKLNKETVGPVGIDEVDEEGKWVRVANNSEEEQSIGGYKLVVKAGNKEASFQFSSRMKLAPHASATVWSADAGAVHHPPEVYVMKKQQWPIGDNPSARLEDSEGDTVSSITVEFSESSDPSDPADRCSIM
B3: His::emerin 1–125 (Ce-emerin residues 1–125, nucleoplasmic domain only) (domain or fragment, C. elegans, UniProt O01971 1-125, looked up)
chain: MDVSQLTDAELRDSLKSHGVSVGPIVATTRKLYEKKLIKLSDGSINNQSNLNDSQFNEDSLIISSSPKKSPPQRVFQNVSAATAAATTSPESDSDDCEESMRYLTEEEMAADRASARQAQSNKGG

How the values were obtained:
Assay in all cases: SPR
[1] = molecular target: the molecule itself
[2] = molecular target: B1
[3] = molecular target: B1; remark: listed apart in the source
[4] = molecular target: the molecule itself; remark: listed apart in the source
[5] = molecular target: B3

Binder: B1
- Kd [1]: 3.7 nM

B2: Ce-lamin tail domain (residues 388–566), His-tagged (domain or fragment, C. elegans, UniProt Q21443 388-566, looked up)
chain: NLTQEAPQNTSVHHVSFSSGGASAQRGVKRRRVVDVNGEDQDIDYLNRRSKLNKETVGPVGIDEVDEEGKWVRVANNSEEEQSIGGYKLVVKAGNKEASFQFSSRMKLAPHASATVWSADAGAVHHPPEVYVMKKQQWPIGDNPSARLEDSEGDTVSSITVEFSESSDPSDPADRCSIM
- Kd [2]: 0.56 nM

Binder: B3
- Kd [3]: 4 to 5 nM
- Kd [4]: 14 nM

B4: MBP::BAF-1 (wild-type C. elegans barrier to autointegration factor 1 fused to maltose-binding protein) (natural protein, UniProt Q03565 1-89, looked up)
chain: MSTSVKHREFVGEPMGDKEVTCIAGIGPTYGTKLTDAGFDKAYVLFGQYLLLKKDEDLFIEWLKETAGVTANHAKTAFNCLNEWADQFM
- Kd [2]: 84 nM
- Kd [5]: 57 nM

B5: MBP::BAF-1 F46E (natural protein, C. elegans, UniProt Q03565 1-89, looked up)
chain: MSTSVKHREFVGEPMGDKEVTCIAGIGPTYGTKLTDAGFDKAYVLEGQYLLLKKDEDLFIEWLKETAGVTANHAKTAFNCLNEWADQFM
- Kd [2]: 623 nM
- Kd [5]: 5.6 nM

B6: MBP::BAF-1 S4A (natural protein, C. elegans, UniProt Q03565 1-89, looked up)
chain: MSTAVKHREFVGEPMGDKEVTCIAGIGPTYGTKLTDAGFDKAYVLFGQYLLLKKDEDLFIEWLKETAGVTANHAKTAFNCLNEWADQFM
- Kd [2]: 281 nM
- Kd [5]: 20 nM

B7: MBP::BAF-1 S4E (natural protein, C. elegans, UniProt Q03565 1-89, looked up)
chain: MSTEVKHREFVGEPMGDKEVTCIAGIGPTYGTKLTDAGFDKAYVLFGQYLLLKKDEDLFIEWLKETAGVTANHAKTAFNCLNEWADQFM
- Kd [2]: 32100 nM
- Kd [5]: ~57 nM

B8: MBP::BAF-1 K6A (natural protein, C. elegans, UniProt Q03565 1-89, looked up)
chain: MSTSVAHREFVGEPMGDKEVTCIAGIGPTYGTKLTDAGFDKAYVLFGQYLLLKKDEDLFIEWLKETAGVTANHAKTAFNCLNEWADQFM
- Kd [2]: 198 nM
- Kd [5]: 31 nM
